Test results from IntAct's records for PubMed 29892012.

B1: Vasculin (Homo sapiens), Q86WP2 (parent)
chain: MAQHDFAPAWLNFPTPPSSTKSSLNFEKHSENFAWTENRYDVNRRRHNSSDGFDSAIGRPNGGNFGRKEKNGWRTHGRNGTENINHRGGYHGGSSRSRSSIFHAGKSQGLHENNIPDNETGRKEDKRERKQFEAEDFPSLNPEYEREPNHNKSLAAGVWEYPPNPKSRAPRMLVIKKGNTKDLQLSGFPVVGNLPSQPVKNGTGPSVYKGLVPKPAAPPTKPTQWKSQTKENKVGTSFPHESTFGVGNFNAFKSTAKNFSPSTNSVKECNRSNSSSPVDKLNQQPRLTKLTRMRTDKKSEFLKALKRDRVEEEHEDESRAGSEKDDDSFNLHNSNSTHQERDINRNFDENEIPQENGNASVISQQIIRSSTFPQTDVLSSSLEAEHRLLKEMGWQEDSENDETCAPLTEDEMREFQVISEQLQKNGLRKNGILKNGLICDFKFGPWKNSTFKPTTENDDTETSSSDTSDDDDV
partner: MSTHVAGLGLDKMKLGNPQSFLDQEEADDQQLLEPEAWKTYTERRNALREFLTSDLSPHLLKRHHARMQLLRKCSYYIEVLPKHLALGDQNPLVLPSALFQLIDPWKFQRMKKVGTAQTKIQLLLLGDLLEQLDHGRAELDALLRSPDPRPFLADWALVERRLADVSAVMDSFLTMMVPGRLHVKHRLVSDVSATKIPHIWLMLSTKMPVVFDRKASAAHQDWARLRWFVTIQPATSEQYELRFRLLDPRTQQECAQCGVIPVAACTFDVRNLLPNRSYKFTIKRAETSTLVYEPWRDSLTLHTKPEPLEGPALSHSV
B2: E3 ubiquitin-protein ligase LNX (Homo sapiens), Q8TBB1 (parent)
chain: MNQPESANDPEPLCAVCGQAHSLEENHFYSYPEEVDDDLICHICLQALLDPLDTPCGHTYCTLCLTNFLVEKDFCPMDRKPLVLQHCKKSSILVNKLLNKLLVTCPFREHCTQVLQRCDLEHHFQTSCKGASHYGLTKDRKRRSQDGCPDGCASLTATAPSPEVSAAATISLMTDEPGLDNPAYVSSAEDGQPAISPVDSGRSNRTRARPFERSTIRSRSFKKINRALSVLRRTKSGSAVANHADQGRENSENTTAPEVFPRLYHLIPDGEITSIKINRVDPSESLSIRLVGGSETPLVHIIIQHIYRDGVIARDGRLLPGDIILKVNGMDISNVPHNYAVRLLRQPCQVLWLTVMREQKFRSRNNGQAPDAYRPRDDSFHVILNKSSPEEQLGIKLVRKVDEPGVFIFNVLDGGVAYRHGQLEENDRVLAINGHDLRYGSPESAAHLIQASERRVHLVVSRQVRQRSPDIFQEAGWNSNGSWSPGPGERSNTPKPLHPTITCHEKVVNIQKDPGESLGMTVAGGASHREWDLPIYVISVEPGGVISRDGRIKTGDILLNVDGVELTEVSRSEAVALLKRTSSSIVLKALEVKEYEPQEDCSSPAALDSNHNMAPPSDWSPSWVMWLELPRCLYNCKDIVLRRNTAGSLGFCIVGGYEEYNGNKPFFIKSIVEGTPAYNDGRIRCGDILLAVNGRSTSGMIHACLARLLKELKGRITLTIVSWPGTFL
partner: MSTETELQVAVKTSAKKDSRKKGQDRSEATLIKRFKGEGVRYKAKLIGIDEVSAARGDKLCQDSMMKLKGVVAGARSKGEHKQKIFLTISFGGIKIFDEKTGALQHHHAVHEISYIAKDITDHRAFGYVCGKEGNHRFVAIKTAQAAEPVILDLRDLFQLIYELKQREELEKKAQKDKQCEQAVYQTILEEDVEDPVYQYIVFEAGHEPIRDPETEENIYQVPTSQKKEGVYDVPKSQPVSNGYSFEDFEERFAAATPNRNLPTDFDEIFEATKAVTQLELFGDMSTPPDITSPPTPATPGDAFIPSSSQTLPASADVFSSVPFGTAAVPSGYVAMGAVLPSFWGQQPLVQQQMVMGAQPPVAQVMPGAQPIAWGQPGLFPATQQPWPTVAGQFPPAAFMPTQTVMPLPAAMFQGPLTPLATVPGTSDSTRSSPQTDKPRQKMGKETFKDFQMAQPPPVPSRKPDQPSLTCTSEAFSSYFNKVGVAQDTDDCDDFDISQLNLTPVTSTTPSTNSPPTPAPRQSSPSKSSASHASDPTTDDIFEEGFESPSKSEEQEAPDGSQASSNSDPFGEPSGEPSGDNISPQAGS
B3: Small glutamine-rich tetratricopeptide repeat-containing protein beta (Homo sapiens), Q96EQ0 (parent)
chain: MSSIKHLVYAVIRFLREQSQMDTYTSDEQESLEVAIQCLETVFKISPEDTHLAVSQPLTEMFTSSFCKNDVLPLSNSVPEDVGKADQLKDEGNNHMKEENYAAAVDCYTQAIELDPNNAVYYCNRAAAQSKLGHYTDAIKDCEKAIAIDSKYSKAYGRMGLALTALNKFEEAVTSYQKALDLDPENDSYKSNLKIAEQKLREVSSPTGTGLSFDMASLINNPAFISMAASLMQNPQVQQLMSGMMTNAIGGPAAGVGGLTDLSSLIQAGQQFAQQIQQQNPELIEQLRNHIRSRSFSSSAEEHS
partner: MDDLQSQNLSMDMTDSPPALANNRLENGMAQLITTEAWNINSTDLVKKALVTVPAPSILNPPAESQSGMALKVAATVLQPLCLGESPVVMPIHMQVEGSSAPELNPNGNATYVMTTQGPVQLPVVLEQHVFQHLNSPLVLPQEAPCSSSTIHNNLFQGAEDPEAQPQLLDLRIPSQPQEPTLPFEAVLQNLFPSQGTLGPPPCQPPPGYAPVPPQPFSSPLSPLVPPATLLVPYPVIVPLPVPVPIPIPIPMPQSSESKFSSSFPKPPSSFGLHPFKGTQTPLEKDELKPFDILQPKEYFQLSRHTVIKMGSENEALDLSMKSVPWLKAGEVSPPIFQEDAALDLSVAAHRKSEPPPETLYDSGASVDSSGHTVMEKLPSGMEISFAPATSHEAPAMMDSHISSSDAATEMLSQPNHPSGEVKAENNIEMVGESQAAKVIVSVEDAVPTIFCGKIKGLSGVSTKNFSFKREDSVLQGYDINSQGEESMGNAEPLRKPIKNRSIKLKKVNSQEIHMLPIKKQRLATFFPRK
B4: E3 ubiquitin-protein ligase LNX (Homo sapiens), Q8TBB1 (parent)
chain: B2 chain
partner: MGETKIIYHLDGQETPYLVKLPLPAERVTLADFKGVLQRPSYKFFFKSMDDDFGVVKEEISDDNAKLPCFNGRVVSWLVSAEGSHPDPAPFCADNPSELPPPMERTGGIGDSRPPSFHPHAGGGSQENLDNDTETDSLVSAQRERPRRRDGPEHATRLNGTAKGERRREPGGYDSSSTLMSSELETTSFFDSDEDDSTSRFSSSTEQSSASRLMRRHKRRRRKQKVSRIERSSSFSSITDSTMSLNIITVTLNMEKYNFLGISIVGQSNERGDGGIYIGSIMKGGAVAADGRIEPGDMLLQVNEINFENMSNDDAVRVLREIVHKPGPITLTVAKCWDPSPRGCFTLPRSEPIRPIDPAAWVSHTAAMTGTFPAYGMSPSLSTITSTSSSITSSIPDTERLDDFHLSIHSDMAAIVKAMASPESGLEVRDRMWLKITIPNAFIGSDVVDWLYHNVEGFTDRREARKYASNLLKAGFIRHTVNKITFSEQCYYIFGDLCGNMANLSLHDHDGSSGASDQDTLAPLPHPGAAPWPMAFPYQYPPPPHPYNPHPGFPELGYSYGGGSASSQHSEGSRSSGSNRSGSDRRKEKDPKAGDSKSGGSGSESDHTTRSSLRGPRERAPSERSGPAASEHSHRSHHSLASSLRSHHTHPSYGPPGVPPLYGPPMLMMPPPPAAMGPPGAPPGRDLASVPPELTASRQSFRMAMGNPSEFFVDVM
B5: Small glutamine-rich tetratricopeptide repeat-containing protein beta (Homo sapiens), Q96EQ0 (parent)
chain: B3 chain

Variants of: B1
Settings: with fnd11_human FNDC11, Q9BVV2

| effect of a mutation on the interaction | Variant |
| --- | --- |
| with no effect | MAQHDFAPAWLNFPTPPSSTKSSLNFEKHSENFAWTENRYDVNRRRHNSSDGFDSAIGRPNGGNFGRKEKNGWRTHGRNGTENINHRGGYHGGSSRSRSSIFHAGKSQGLHENNIPDNETGRKEDKRERKQFEAEDFPSLNPEYEREPNHNKSLAAGVWEYPPNPKSRAPRMLVIKKGNTKDLQLSGFPVVGNLPSQPVKNGTGPSVYKGLVPKPAAPPTKPTQWKSQTKENKVGTSFPHESTFGVGNFNAFKSTAKNFSPSTNSVKECNRSNSSSPVDKLNQQPRLTKLTQMRTDKKSEFLKALKRDRVEEEHEDESRAGSEKDDDSFNLHNSNSTHQERDINRNFDENEIPQENGNASVISQQIIRSSTFPQTDVLSSSLEAEHRLLKEMGWQEDSENDETCAPLTEDEMREFQVISEQLQKNGLRKNGILKNGLICDFKFGPWKNSTFKPTTENDDTETSSSDTSDDDDV [R292Q] |

Variants of: B1
Settings: with fnd11_human FNDC11, Q9BVV2
Remark: another data set of the same source

| effect of a mutation on the interaction | Variant |
| --- | --- |
| with no effect | MAQHDFAPAWLNFPTPPSSTKSSLNFEKHSENFAWTENRYDVNRRRHNSSDGFDSAIGRPNGGNFGRKEKNGWRTHGRNGTENINHRGGYHGGSSRSRSSIFHAGKSQGLHENNIPDNETGRKEDKRECKQFEAEDFPSLNPEYEREPNHNKSLAAGVWEYPPNPKSRAPRMLVIKKGNTKDLQLSGFPVVGNLPSQPVKNGTGPSVYKGLVPKPAAPPTKPTQWKSQTKENKVGTSFPHESTFGVGNFNAFKSTAKNFSPSTNSVKECNRSNSSSPVDKLNQQPRLTKLTRMRTDKKSEFLKALKRDRVEEEHEDESRAGSEKDDDSFNLHNSNSTHQERDINRNFDENEIPQENGNASVISQQIIRSSTFPQTDVLSSSLEAEHRLLKEMGWQEDSENDETCAPLTEDEMREFQVISEQLQKNGLRKNGILKNGLICDFKFGPWKNSTFKPTTENDDTETSSSDTSDDDDV [R129C] |

Variants of: B2
Settings: with dab1_human DAB1, O75553

| effect of a mutation on the interaction | Variant |
| --- | --- |
| disrupting interaction strength | E295K |

Variants of: B3
Settings: with rai2_human RAI2, Q9Y5P3

| effect of a mutation on the interaction | Variant |
| --- | --- |
| with no effect | MSSIKHLVYAVIRFLREQSQMDTYTSDEQESLEVAIQCLETVFKISPEDTHLAVSQPLTEMFTSSFCKNDVLPLSNSVPEDVGKADQLKDEGNNHMKEENYAAAVDCYTQAIELDPNNAVYYCNRAAAQSKLGHYTDAIKDCEKAIAIDSKYSKAYGRMGLALTALNKFEEAVTSYQKALDLDPENDSYKSNLKIAEQKLREVSSPTGTGLSFDMASLINNPAFISMAASLMQNPQVQQLMSGMMTNAIGGPAAGVGGLTDLSSLIQAGQQFAQQIQQQNPELIEQLRNHIWSRSFSSSAEEHS [R292W] |

Variants of: B4
Settings: with dvl3_human DVL3, Q92997

| effect of a mutation on the interaction | Variant |
| --- | --- |
| disrupting interaction strength | E295K |

Variants of: B5
Settings: with fbln4_human EFEMP2, O95967
Sequence of fbln4_human EFEMP2, O95967 (O95967 whole entry): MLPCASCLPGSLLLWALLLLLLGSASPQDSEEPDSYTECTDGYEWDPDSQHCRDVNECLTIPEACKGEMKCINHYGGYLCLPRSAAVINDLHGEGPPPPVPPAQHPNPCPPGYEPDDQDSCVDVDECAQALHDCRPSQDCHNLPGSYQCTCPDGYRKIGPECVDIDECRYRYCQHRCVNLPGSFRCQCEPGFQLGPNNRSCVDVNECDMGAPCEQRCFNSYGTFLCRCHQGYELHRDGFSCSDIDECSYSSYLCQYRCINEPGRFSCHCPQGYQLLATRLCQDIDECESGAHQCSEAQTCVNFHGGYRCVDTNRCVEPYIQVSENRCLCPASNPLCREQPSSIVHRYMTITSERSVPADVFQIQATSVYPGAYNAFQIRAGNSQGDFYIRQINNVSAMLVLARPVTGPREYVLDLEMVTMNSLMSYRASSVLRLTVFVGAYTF

| effect of a mutation on the interaction | Variant |
| --- | --- |
| with no effect | MSSIKHLVYAVIRFLREQSQMDTYTSDEQESLEVAIQCLETVFKISPEDTHLAVSQPLTEMFTSSFCKNDVLPLSNSVPEDVGKADQLKDEGNNHMKEENYAAAVDCYTQAIELDPNNAVYYCNRAAAQSKLGHYTDAIKDCEKAIAIDSKYSKAYGRMGLALTALNKFEEAVTSYQKALDLDPENDSYKSNLKIAEQKLREVSSPTGTGLSFDMASLINNPAFISMAASLMQNPQVQQLMSGMMTNAIGGPAAGVGGLTDLSSLIQAGQQFAQQIQQQNPELIEQLRNHIWSRSFSSSAEEHS [R292W] |

Variants of: B5
Settings: with il6rb_human IL6ST

| effect of a mutation on the interaction | Variant |
| --- | --- |
| disrupting interaction strength | MSSIKHLVYAVIRFLREQSQMDTYTSDEQESLEVAIQCLETVFKISPEDTHLAVSQPLTEMFTSSFCKNDVLPLSNSVPEDVGKADQLKDEGNNHMKEENYAAAVDCYTQAIELDPNNAVYYCNRAAAQSKLGHYTDAIKDCEKAIAIDSKYSKAYGRMGLALTALNKFEEAVTSYQKALDLDPENDSYKSNLKIAEQKLREVSSPTGTGLSFDMASLINNPAFISMAASLMQNPQVQQLMSGMMTNAIGGPAAGVGGLTDLSSLIQAGQQFAQQIQQQNPELIEQLRNHIWSRSFSSSAEEHS [R292W] |
